Here are results for 84 variants from the RNAGym collection of RNA variant scans (doi:10.1073/pnas.2313332121).

B1: TPR t1 (parent)
chain: GACCAAUCUGCCCUCAGAGCUCGAGAACAUCUUCGGAUGCAGAGGAGGCAGGCUUCGGUGGCGCGAUAGCGCCAACGUCCUCAACCUCCAAUGCAUCCCACCACAUGAUGAUGCCUGAAGAGCCUUGGUUUUUUG

The data set covers variants of B1. The data set is described as follows: polymerase ribozyme fitness, log enrichment relative to wild type (log ratio); higher = more active; in vitro selection for triplet polymerase activity. The method, boiled down:
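Mutant libraries were PCR-built and transcribed for each subunit of a heterodimeric triplet polymerase ribozyme and selected for one round in triplicate at −7 °C, frozen, before gel excision of extended constructs and streptavidin-bead capture. Input and output libraries were Illumina-sequenced, keeping genotypes with ≥10 input reads and ≥1 read per output. Fitness is a logarithmic ratio of genotype to wild-type enrichment, in base 2, using inverse-variance-weighted replicate averages.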
As to C20A U106A C124A, the “polymerase ribozyme fitness (log ratio)” value is -1.85. Consider A2U C88G U130A, for which the “polymerase ribozyme fitness (log ratio)” value is -2.84. Consider C85G G110C, for which the “polymerase ribozyme fitness (log ratio)” value was -4.96. The result for G60A A91U reads -1.09; that for G10U G19C A37U C72A C73U C123G U130C, -2.79; that for G39U G52A G63U, -2.37. Consider G93C A105U C114G A119G, for which the “polymerase ribozyme fitness (log ratio)” value was -7.51. With G47A A83U, the “polymerase ribozyme fitness (log ratio)” value is -0.645. On to C13G G52U, for which the “polymerase ribozyme fitness (log ratio)” value was -3.2. For C12U G71A, the “polymerase ribozyme fitness (log ratio)” value is -0.123.

Take A46U G58A A83G A84C: the “polymerase ribozyme fitness (log ratio)” value is -2.18.

In the case of G10U C40G, the “polymerase ribozyme fitness (log ratio)” value is -0.556. On to C12U C53G C97A, for which the “polymerase ribozyme fitness (log ratio)” value was -5.8. C8G G25A A26G C73U G128A: the “polymerase ribozyme fitness (log ratio)” value is -4.47. As to A18U G57U A100C G120C, the “polymerase ribozyme fitness (log ratio)” value is -5.42.

A16U C123A: the “polymerase ribozyme fitness (log ratio)” value is -1.57. Turning to C4U G60U, the “polymerase ribozyme fitness (log ratio)” value was -0.43.

Consider C3A G48A C72U A84G, for which the “polymerase ribozyme fitness (log ratio)” value is -1.58. As to C12U U32C U81A U112A, the “polymerase ribozyme fitness (log ratio)” value worked out at 0.32.

On to C12G U21A G71U U78A A121U, for which the “polymerase ribozyme fitness (log ratio)” value is -0.676.

Turning to C70G C124G, the “polymerase ribozyme fitness (log ratio)” value was -0.578.

In the case of C70U G117U A118U U130C, the “polymerase ribozyme fitness (log ratio)” value is -3.8. G44U C62A C101G: the “polymerase ribozyme fitness (log ratio)” value is -4.35. The result for A66C C94U reads -0.92; that for C72A A90U C101A G122A, -3.86. Regarding C101A U106C G110C U134G, the “polymerase ribozyme fitness (log ratio)” value was -4.82. For the variant A46U A121C, the “polymerase ribozyme fitness (log ratio)” value was 1.4. The result for C64A U78C C123U reads -4.49.

On to C88G C102U G117U, for which the “polymerase ribozyme fitness (log ratio)” value was -6.89. As to U9C G57U, the “polymerase ribozyme fitness (log ratio)” value amounted to 0.0681. Regarding A43U G44A A68U C70A C115A C124A U125C U132A, the “polymerase ribozyme fitness (log ratio)” value is -6.95. For C49A A83C A84U, the “polymerase ribozyme fitness (log ratio)” value is -0.775. With G36A G44A G77U A84U, the “polymerase ribozyme fitness (log ratio)” value is -2.98. The result for A46U C64U A66U reads -2.06; that for G45A G58A A111C A118C, -0.455; that for A50G G51A C72G C88U G110U, -5.05. Turning to C72G A119U C124G, the “polymerase ribozyme fitness (log ratio)” value was determined as 1.57. U9A A91G: the “polymerase ribozyme fitness (log ratio)” value was -0.793.

Turning to C12U A41U C56A U87A C114U, the “polymerase ribozyme fitness (log ratio)” value is -3.21. The result for A6U C11A C13G G47A G48A A74C A118G reads -5.36; that for C11U A26U C49G, -3.4; that for A84G C85U, 0.384. For the variant C15A G52U A66U C94G, the “polymerase ribozyme fitness (log ratio)” value is -5.17. The result for A6U G51U C70U C80U G93U reads -5.12; that for A2U C12U A27U G47A, -5.43; that for C3U C70A U78C A91C C97G A121U, -6.74. The result for C15A A43U C76G reads -3.73. Regarding A24G U38A U55A, the “polymerase ribozyme fitness (log ratio)” value is -2.85. With G51U G60U G69C C73G, the “polymerase ribozyme fitness (log ratio)” value was -4.99. As for C34A C88A U106C C114A, the “polymerase ribozyme fitness (log ratio)” value was -6.05. Consider C12U C31U G77U U87C C123U, for which the “polymerase ribozyme fitness (log ratio)” value was -3.57.

For C40U C62U, the “polymerase ribozyme fitness (log ratio)” value was -0.882. Turning to A95G C104A U109C C114U C124A, the “polymerase ribozyme fitness (log ratio)” value is -2.73. As to C28U G57U C86A A90G G93U U96G G113C A121U, the “polymerase ribozyme fitness (log ratio)” value is -7.69. As to G10U U129C, the “polymerase ribozyme fitness (log ratio)” value is -1.9. The result for A91G C102A C104A U109A reads -5.59; that for G52U C53A C73U, -1.08; that for C3A G60A U112C, 0.261. In the case of G10C C15A, the “polymerase ribozyme fitness (log ratio)” value is -2.21. The result for C40A G52A G60A U81C A95U reads -3.45; that for A2G C62U A83G, -1.82; that for C12A A46U, -1.75. On to U14A A24C C49G C72U U92C G113U U116A, for which the “polymerase ribozyme fitness (log ratio)” value is -6.78. For C20A C114A, the “polymerase ribozyme fitness (log ratio)” value is -2.56. The result for C8G A43U A95U U109A C123G reads -5.23. On to G48C C94G C115U, for which the “polymerase ribozyme fitness (log ratio)” value is -3.03. Regarding A121C G128C, the “polymerase ribozyme fitness (log ratio)” value is -0.622. The result for A16C G52A reads -1.81; that for G25U C56G G63C A121U, -5.04; that for A27U G117U C123G, -4.27. As for A100C G110C, the “polymerase ribozyme fitness (log ratio)” value was -4.94.

For A16G C70U C115A U125C, the “polymerase ribozyme fitness (log ratio)” value was -2.39. The result for C40U C80A A84U reads -4.52. Take A29C A37G: the “polymerase ribozyme fitness (log ratio)” value was -2.11. On to C73A G120A, for which the “polymerase ribozyme fitness (log ratio)” value amounted to 0.528. For the variant C85U G120C, the “polymerase ribozyme fitness (log ratio)” value turned out to be 0.93. With C56G G63A, the “polymerase ribozyme fitness (log ratio)” value is -2.75. On to A6G C13A G17A A95G, for which the “polymerase ribozyme fitness (log ratio)” value is -3.46. The result for C12U A16G C73U C102A reads -1.8; that for G69U C89G, -0.225. As for C79G C102U, the “polymerase ribozyme fitness (log ratio)” value is -4.67.

Take C34U U59A U106A U109A G120A: the “polymerase ribozyme fitness (log ratio)” value is -5.08. Turning to G61U U81G C86U G120U, the “polymerase ribozyme fitness (log ratio)” value is -2.64. G10A G17U C115A G135U: the “polymerase ribozyme fitness (log ratio)” value came to 0.196.
